Experimental data published in patent US20230002466A1 (ELPIS BIOPHARMACEUTICALS, published 2023).
Numbering of substitutions follows the chain as printed. Read-outs that look alike come from different tables or passages of the source.

B1: EP242 (ligand)
chain: APTSSSTKKTQLQLEHLLLDLQMILNGINNYKNPKLTRMLTFKFYMPKKATELKHLQCLEEELKPLEEVLNLAQSKNFHLTARDAISNIRVIVQELKGSETTFMCEYADETATIVEFLNRWITFCQSIISTLT
notes: EP001 back-mutation clone; not shown: His and Flag tags
B2: EP334 (ligand)
chain: B1 chain with K35S, F42G, R90N, V93I
notes: not shown: His and Flag tags
B3: EP348 (ligand)
chain: B1 chain with R38V, Y45S, A82P, S87D, V93I, Q94L
notes: not shown: His and Flag tags
B4: EP330 (ligand)
chain: B1 chain with K35G, R38E, R90N, V93I
notes: not shown: His and Flag tags
B5: EP331 (ligand)
chain: B1 chain with K35G, R38E, A82P, S87D
notes: not shown: His and Flag tags
B6: EP262 (ligand)
chain: B1 chain with S87D, R90N, V93I, Q94L
notes: not shown: His and Flag tags
B7: EP352 (ligand)
chain: B1 chain with F42A, A82P, S87D, V93I, Q94L
notes: not shown: His and Flag tags
B8: EP332 (ligand)
chain: B1 chain with K35G, R38E, A82P, S87D, V93I, Q94L
notes: not shown: His and Flag tags
B9: EP263 (ligand)
chain: B1 chain with S87D, Q94L
notes: not shown: His and Flag tags
B10: EP254 (ligand)
chain: B1 chain with A85L, V93I
notes: not shown: His and Flag tags
B11: EP255 (ligand)
chain: B1 chain with A85L, S87D, R90N, V93I
notes: not shown: His and Flag tags
B12: EP411 (ligand)
chain: APTSSSTKKTQLQLEHLLLDLQMILNGINNYKNPKLTVMLTFKFSMPKKATELKHLQCLEEELKPLEEVLNLAQSKNFHLGVTDSISNAIVLARELKGSETTFMCEYADETATIVEFLNRWITFCQSIISTLT
notes: not shown: His and Flag tags
B13: EP251 (ligand)
chain: B1 chain with A82P, S87D, R90N, V93I
notes: not shown: His and Flag tags
B14: EP247 (ligand)
chain: B1 chain with T81R, S87D
notes: not shown: His and Flag tags
B15: EP336 (ligand)
chain: B1 chain with K35S, F42G, A82P, S87D, V93I, Q94L
notes: not shown: His and Flag tags
B16: EP410 (ligand)
chain: B1 chain with R38V, Y45S, I86V, S87D, I89M, V93I
notes: not shown: His and Flag tags
B17: EP261 (ligand)
chain: B1 chain with S87D, R90N
notes: not shown: His and Flag tags
B18: EP335 (ligand)
chain: B1 chain with K35S, F42G, A82P, S87D
notes: not shown: His and Flag tags
B19: EP256 (ligand)
chain: B1 chain with A85L, S87D
notes: not shown: His and Flag tags
B20: EP351 (ligand)
chain: B1 chain with F42A, A82P, S87D
notes: not shown: His and Flag tags
B21: EP344 (ligand)
chain: B1 chain with R38D, Y45S, A82P, S87D, V93I, Q94L
notes: not shown: His and Flag tags
B22: EP342 (ligand)
chain: B1 chain with R38D, Y45S, R90N, V93I
notes: not shown: His and Flag tags
B23: EP343 (ligand)
chain: B1 chain with R38D, Y45S, A82P, S87D
notes: not shown: His and Flag tags

What was measured:
[1] = biological target: T1, human IL2Rβ Fc fusion protein (human, UniProt P14784 27-239); assay: ELISA, receptor-Fc coated, anti-Flag HRP
T1 construct: also called Recombinant Fc-tagged human IL2Rβ; not shown: Fc
T1 sequence (looked up): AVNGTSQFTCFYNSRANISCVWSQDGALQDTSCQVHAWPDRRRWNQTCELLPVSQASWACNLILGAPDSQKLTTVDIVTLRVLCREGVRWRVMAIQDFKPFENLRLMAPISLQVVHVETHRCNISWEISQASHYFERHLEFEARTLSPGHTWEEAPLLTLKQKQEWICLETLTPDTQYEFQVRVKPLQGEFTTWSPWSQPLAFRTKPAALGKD
Experimental: (§1) Briefly, 384 well plate was immobilized with human IL2Rα and IL2Rβ Fc fusion proteins at a final concentration of 2 ug/mL in 1×PBS in total volume of 25 uL per well. The plate was incubated overnight at 4 C and blocked with 80 uL of superblock per well for 1 hour. […] Each dilution was added to IL2Rα or IL2Rβ wells in parallel in duplicates. The IL2 mutant binding was detected by adding 25 uL of anti-Flag HRP diluted at 1:5000 in 1×PBST. In between each step, the plate was washed three times with 1×PBST using a plate washer. The plate was then developed with 25 uL of TMB substrate for five minutes and stopped by adding 25 ul of 2N sulfuric acid. The plate was read at OD450 nm Biotek plate reader and the EC50 was analyzed with Prism 8.1 software to generate EC50 values (FIG. 15A for IL2Rα, and FIG. 15B for IL2Rβ, summarized in Table 9).

[2] = biological target: T2, human IL2Rα Fc fusion protein (human, UniProt P01589 22-213, limits assumed); assay: ELISA, receptor-Fc coated, anti-Flag HRP
T2 construct: also called Recombinant Fc-tagged human IL2Rα; not shown: Fc
T2 sequence (looked up): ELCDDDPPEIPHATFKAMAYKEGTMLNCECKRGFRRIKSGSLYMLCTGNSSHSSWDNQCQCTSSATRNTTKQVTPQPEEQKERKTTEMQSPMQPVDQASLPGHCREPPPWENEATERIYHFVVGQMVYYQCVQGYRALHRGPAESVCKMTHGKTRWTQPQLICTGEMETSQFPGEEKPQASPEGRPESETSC
Experimental: as §1

human IL2Rβ [3] = biological target: T3, human IL2Rβ (human, UniProt P14784 27-239); assay: SPR, IL2Rβ captured on Protein A chip
T3 construct: also called IL2β; CD122
T3 sequence (looked up): T1 sequence (looked up)
Experimental: The assay was run with Biacore T200 control software version 2.0. For each cycle, 1 ug/mL of human IL2Rβ was captured for 60 seconds at flow rate of 10 uL/min on flow cell 2 in 1×HBSP buffer on Protein A sensor chip. 100 nM of HIS and Flag tag purified each IL2 mutant was 2-fold serial diluted and injected onto both reference flow cell 1 and IL2Rβ captured flow cell 2 for 150 seconds at flow rate of 30 uL/min followed by washing for 300 seconds. The flow cells were then regenerated with Glycine pH2 for 60 seconds at a flow rate of 30 uL/min. The assay was set up with 8 serial diluted concentration points in 96-well format. The kinetics data was analyzed with Biacore T200 evaluation software 3.0. The specific binding response unit was derived from subtraction of binding to reference flow cell 1 from target flow cell 2 (FIGS. 16A-16F, Table 10).

[4] = biological target: T1, human IL2Rβ Fc fusion protein; assay: ELISA, Fc-tagged receptor coated, anti-HisTag-HRP
Experimental: (§2) Recombinant Fc-tagged human IL2Rα and IL2Rβ were added in 25 uL of 1×PBS to wells of 384-well plate and incubated overnight at 4° C. to coat the plates. Plates were washed three times with 0.05% Tween20/1×PBS. Plates were blocked with 100 uL of SuperBlock for 1 hr at RT and then washed 3 times with 0.05% Tween20/1×PBS. IL2 mutants were diluted in 0.05% Tween 20/1×PBS from 1000 nM to 0 nM and added to plates for 2 hrs at room temperature. Plates were then washed 6 times with 0.05% Tween20/1×PBS. Anti-HisTag-HRP was diluted 1:5000 in 0.05% Tween20/1×PBS and added to plates for 1 hr at RT. Plates were then washed 6 times with 0.05% Tween 20/1×PBS, and TMB was added to develop blue color. Reactions were stopped with 2N […] and light absorbance at 450 nm was read on a BioTek plate reader.

[5] = biological target: T2, human IL2Rα Fc fusion protein; assay: ELISA, single point, Fc-tagged human IL2Rα coated, anti-His-HRP; concentration not printed (Example 14)
Experimental: as §2

human IL2Rβ [6] = biological target: T3, human IL2Rβ; assay: SPR, IL2Rβ captured on Protein A chip; remark: listed apart in the source
Experimental: Kinetic analysis of the receptor binding activities of IL2Rβ agonist with IL2Rα reduced activity mutations have been assessed by SPR technology with Biacore T200. The assay was run with Biacore T200 control software version 2.0. For each cycle, 1 ug/mL of human IL2Rβ was captured for 60 seconds at flow rate of 10 ul/min on flow cell 2 in 1×HBSP buffer on Protein A sensor chip. 100 nM of HIS and Flag tag purified each IL2 mutant was 2 fold serial diluted and injected onto both reference flow cell 1 and IL2Rβ captured flow cell 2 for 150 seconds at flow rate of 30 ul/mins followed by wash for 300 seconds. The flow cells were then regenerated with Glycine pH2 for 60 seconds at flow rate of 30 ul/mins. The assay was set up with 8 serial diluted concentration points in 96 well format. The kinetics data was analyzed with Biacore T200 evaluation software 3.0. The specific binding response unit was derived from subtraction of binding to reference flow cell 1 from target flow cell 2.

Binder | EC50 [1] | EC50 [2] | EC50 [4] | binding result [5] | other results
B1 | 5.7 nM | 8.7 nM | – | – | Kd (human IL2Rβ [3]): 7.16 nM; koff (human IL2Rβ [3]): 0.0241 s⁻¹; kon (human IL2Rβ [3]): 3.36e+06 M⁻¹ s⁻¹
B2 | – | – | 28.6 nM | no binding (tested: not printed) | –
B3 | – | – | 124 nM | no binding (tested: not printed) | –
B4 | – | – | – | no binding (tested: not printed) | –
B5 | – | – | 39.3 nM | no binding (tested: not printed) | –
B6 | 53.2 nM | 32.1 nM | – | – | –
B7 | – | – | 33.8 nM | no binding (tested: not printed) | –
B8 | – | – | 44 nM | no binding (tested: not printed) | –
B9 | 1.3 nM | 4.9 nM | – | – | Kd (human IL2Rβ [3]): 2.79 nM; koff (human IL2Rβ [3]): 0.0191 s⁻¹; kon (human IL2Rβ [3]): 6.84e+06 M⁻¹ s⁻¹
B10 | 556 nM | 4.3 nM | – | – | –
B11 | 360 nM | 4.3 nM | – | – | –
B12 | – | – | – | – | Kd (human IL2Rβ [6]): 0.461 nM; koff (human IL2Rβ [6]): 0.000839 s⁻¹; kon (human IL2Rβ [6]): 1.82e+06 M⁻¹ s⁻¹
B13 | 2.5 nM | 16.8 nM | – | – | –
B14 | 4.7 nM | 8.3 nM | – | – | Kd (human IL2Rβ [3]): 7.23 nM; koff (human IL2Rβ [3]): 0.0304 s⁻¹; kon (human IL2Rβ [3]): 4.2e+06 M⁻¹ s⁻¹
B15 | – | – | 133 nM | no binding (tested: not printed) | –
B16 | – | – | – | – | Kd (human IL2Rβ [6]): 0.827 nM; koff (human IL2Rβ [6]): 0.00594 s⁻¹; kon (human IL2Rβ [6]): 7.19e+06 M⁻¹ s⁻¹
B17 | 124 nM | 2.9 nM | – | – | –
B18 | – | – | 59.1 nM | no binding (tested: not printed) | –
B19 | 362 nM | 5.3 nM | – | – | –
B20 | – | – | 21.2 nM | no binding (tested: not printed) | –
B21 | – | – | 50.7 nM | no binding (tested: not printed) | –
B22 | – | – | 58.9 nM | no binding (tested: not printed) | –
B23 | – | – | 19.7 nM | no binding (tested: not printed) | –
